The results in this text go back to publication PMC3947485.

This assay deals with TRAP1 from zebrafish (D. rerio), full-length mature protein (D. rerio). As to the kind of experiment: crystal structure.

One may read the stoichiometry N as the number of molecules, sites or subunits per partner or assembly.

The substance “TRAP1 from zebrafish (D. rerio), full-length mature protein (natural protein)” had a stoichiometry N of 2.
